From PMC4966956, “Analysis of the Bile Salt Export Pump (ABCB11) Interactome Employing Complementary Approaches” (PLoS ONE, 2016)

Target: T1, bile salt export pump (BSEP), purified, with C-terminal affinity tags (human, UniProt O95342 1-1321)
T1 construct: bile salt export pump (BSEP, ABCB11), human; construct pSGP18-2μ-BSEP; also called purified BSEP; pSGP18-2μ-BSEP; not shown: His tag (inferred from the removal of the tags on Ni-NTA), C-terminal, kept
Assay: pull-down; Strep-tagged partner immobilised on Strep-Tactin resin, detergent-solubilised purified BSEP added for 30 min at 4°C; 50 mM sodium phosphate pH 7, 150 mM NaCl, 20% glycerol, 0.022% DDM; immunoblot against BSEP and Strep-tag II
Conditions: both partners purified

T1 sequence (O95342 whole entry): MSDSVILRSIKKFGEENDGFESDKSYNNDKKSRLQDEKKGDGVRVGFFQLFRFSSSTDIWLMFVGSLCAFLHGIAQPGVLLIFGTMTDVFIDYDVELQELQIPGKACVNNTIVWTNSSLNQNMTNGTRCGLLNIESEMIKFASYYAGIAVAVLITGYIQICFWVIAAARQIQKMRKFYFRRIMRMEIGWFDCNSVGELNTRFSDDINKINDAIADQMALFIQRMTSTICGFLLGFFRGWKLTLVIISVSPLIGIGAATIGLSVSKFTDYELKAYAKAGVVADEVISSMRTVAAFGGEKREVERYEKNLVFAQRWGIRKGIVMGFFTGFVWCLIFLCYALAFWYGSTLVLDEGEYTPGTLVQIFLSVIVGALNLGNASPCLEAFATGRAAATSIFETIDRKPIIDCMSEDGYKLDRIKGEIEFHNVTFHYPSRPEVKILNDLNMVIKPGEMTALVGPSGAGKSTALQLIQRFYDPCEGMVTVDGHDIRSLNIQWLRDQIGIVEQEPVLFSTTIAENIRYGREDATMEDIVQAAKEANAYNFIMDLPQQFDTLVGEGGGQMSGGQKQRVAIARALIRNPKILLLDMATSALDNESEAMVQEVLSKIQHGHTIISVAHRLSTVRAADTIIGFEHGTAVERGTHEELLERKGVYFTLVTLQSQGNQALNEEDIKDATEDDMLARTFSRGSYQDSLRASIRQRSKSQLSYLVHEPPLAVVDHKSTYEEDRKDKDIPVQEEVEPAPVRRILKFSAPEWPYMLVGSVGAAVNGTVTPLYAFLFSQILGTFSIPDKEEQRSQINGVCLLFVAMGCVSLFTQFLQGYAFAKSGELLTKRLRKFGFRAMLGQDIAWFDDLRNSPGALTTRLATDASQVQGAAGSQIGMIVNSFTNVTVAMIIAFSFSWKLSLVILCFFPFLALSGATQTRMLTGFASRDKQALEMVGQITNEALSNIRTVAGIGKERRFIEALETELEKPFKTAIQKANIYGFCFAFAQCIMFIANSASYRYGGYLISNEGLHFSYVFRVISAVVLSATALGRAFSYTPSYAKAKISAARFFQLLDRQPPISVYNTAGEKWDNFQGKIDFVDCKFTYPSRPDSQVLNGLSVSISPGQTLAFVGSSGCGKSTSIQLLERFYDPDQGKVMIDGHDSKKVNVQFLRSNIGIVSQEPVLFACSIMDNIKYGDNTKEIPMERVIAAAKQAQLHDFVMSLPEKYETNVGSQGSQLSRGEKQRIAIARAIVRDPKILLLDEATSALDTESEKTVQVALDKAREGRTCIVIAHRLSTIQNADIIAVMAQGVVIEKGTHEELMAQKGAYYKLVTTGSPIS

B1: BACS_(77-690), Strep-tagged, purified (domain or fragment, human, UniProt Q9Y2P5-1 77-690, looked up)
chain: PARLPPGLRWLPADVIFLAKILHLGLKIRGCLSRQPPDTFVDAFERRARAQPGRALLVWTGPGAGSVTFGELDARACQAAWALKAELGDPASLCAGEPTALLVLASQAVPALCMWLGLAKLGCPTAWINPHGRGMPLAHSVLSSGARVLVVDPDLRESLEEILPKLQAENIRCFYLSHTSPTPGVGALGAALDAAPSHPVPADLRAGITWRSPALFIYTSGTTGLPKPAILTHERVLQMSKMLSLSGATADDVVYTVLPLYHVMGLVVGILGCLDLGATCVLAPKFSTSCFWDDCRQHGVTVILYVGELLRYLCNIPQQPEDRTHTVRLAMGNGLRADVWETFQQRFGPIRIWEVYGSTEGNMGLVNYVGRCGALGKMSCLLRMLSPFELVQFDMEAAEPVRDNQGFCIPVGLGEPGLLLTKVVSQQPFVGYRGPRELSERKLVRNVRQSGDVYYNTGDVLAMDREGFLYFRDRLGDTFRWKGENVSTHEVEGVLSQVDFLQQVNVYGVCVPGCEGKVGMAAVQLAPGQTFDGEKLYQHVRAWLPAYATPHFIRIQDAMEVTSTFKLMKTRLVREGFNVGIVVDPLFVLDNRAQSFRPLTAEMYQAVCEGTWRL
notes: bile acyl-CoA synthetase (BACS, SLC27A5), human, residues 77-690, without the N-terminal membrane anchor, in pET-51b(+); vector pET-51b(+); also called BACS lacking its N-terminal membrane anchor; bile acyl-CoA synthetase; source: E. coli Rosetta (DE3) pLysS, purified (Strep-Tactin)
binding result: binds
